From patent US20250074980A1 (BRIGHAM AND WOMEN S HOSPITAL, published 2025) come the findings set out here.

Broadly, the Kd is the constant that tells how readily two partners part at equilibrium. Read a low Kd as a tighter complex. For orientation: koff means the first-order rate constant of dissociation. A higher koff goes with a short-lived complex. The kon is the second-order rate constant of association. Read a high kon as fast association.

Experiment [1] deals with T1, His-tagged CEACAM1 (human, UniProt P13688 35-428).
T1 construct: 45 kDa SPR analyte; also called CEACAM1-HIS; CEACAM1 analyte
T1 sequence: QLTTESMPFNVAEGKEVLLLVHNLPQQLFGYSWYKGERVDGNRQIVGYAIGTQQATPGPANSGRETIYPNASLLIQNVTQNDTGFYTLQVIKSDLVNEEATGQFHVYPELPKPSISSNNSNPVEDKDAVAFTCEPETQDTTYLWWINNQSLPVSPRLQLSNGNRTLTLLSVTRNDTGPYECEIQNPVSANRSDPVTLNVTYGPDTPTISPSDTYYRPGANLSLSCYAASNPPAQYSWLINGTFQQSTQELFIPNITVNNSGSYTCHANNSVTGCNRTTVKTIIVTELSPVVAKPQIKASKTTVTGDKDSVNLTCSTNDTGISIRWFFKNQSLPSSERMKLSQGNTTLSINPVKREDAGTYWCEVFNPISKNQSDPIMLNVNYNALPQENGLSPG
The experiment can be described thus: SPR multi-cycle, IgG captured. Here is the method:
As an alternative approach to assess the binding of the 36 antibody combinations and the three control antibodies to CEACAM1, a kinetic analysis was performed on a Biacore T200 (serial no. 1909913) running Biacore T200 Evaluation Software V2.0.1 (Uppsala, Sweden). All experiments were run at 25° C. with HBS-P+ running buffer (pH 7.4) (GE Healthcare, cat. no. BR100671). All kinetic experiments were performed using His-tagged CEACAM1 as the analyte. For all experiments, antibodies were immobilized onto a Series S Protein A sensor chip surface. For kinetic experiments, the amount of immobilized/captured ligand was limited to avoid mass transfer effects at the surface of the chip with the surface ideally having an analyte binding level (Rₘₐₓ) of 50-150 RUs. Using a MW of 45 kDa for the CEACAM1 analyte, 150 kDa for the antibody ligand (estimated value for IgG), 50 RU for Rmax and the stoichiometry (Sm) as 2 due to the ability of each antibody to bind 2 target molecules, a target response level of ˜75 RUs was set for capture of all the sample antibodies.
The signal from the reference channel Fc1 was subtracted from that of Fc2, Fc3 and Fc4 to correct for differences in non-specific binding to a reference surface, a global Rmax parameter was used in the 1-to-1 binding model. The relative Kp compared to […] was calculated by dividing the Kp of the humanized CEACAM antibody variants by that of the chimeric antibody VH0/Vκ0 on the same chip. A summary of the averaged relative Kp obtained for the 12 antibody combinations analyzed using multi cycle kinetics can be found in Table 5.

The target in experiment [2] is T2, CEACAM6 on transfected HeLa cells (human, UniProt P40199 35-320).
T2 construct: whole, on cells; also called HeLa-CEACAM6; HeLa C6
T2 sequence (looked up): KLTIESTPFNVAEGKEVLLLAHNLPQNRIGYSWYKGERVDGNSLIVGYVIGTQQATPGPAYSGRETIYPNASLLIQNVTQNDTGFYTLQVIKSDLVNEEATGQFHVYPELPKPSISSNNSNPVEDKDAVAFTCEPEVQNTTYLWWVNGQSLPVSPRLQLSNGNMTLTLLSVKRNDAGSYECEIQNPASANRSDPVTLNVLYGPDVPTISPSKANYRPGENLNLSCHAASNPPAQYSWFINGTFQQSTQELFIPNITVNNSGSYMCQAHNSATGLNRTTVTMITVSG
The experiment can be described thus: flow cytometry, HeLa-CEACAM6 transfectants, % positive cells.

In experiment [3] the target is T1, His-tagged CEACAM1. The experiment in a line: SPR multi-cycle. The procedure, abridged:
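Surface plasmon resonance multi-cycle kinetics on a Biacore T200 at 25° C in HBS-P+ (pH 7.4). Purified antibody at 1 μg/ml was captured on a Series S Protein A chip to ~75 RU, with His-tagged CEACAM1 analyte in 2-fold dilutions from 200 to 3.125 nM or 100 to 1.5625 nM at 80 μl/min. Association was 50 or 150 seconds and dissociation 100 seconds, with glycine-HCl pH 1.5 regeneration. Kon, koff, Kd and relative KD come from these sensorgrams.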

The target of experiment [4] is T1, His-tagged CEACAM1. The experiment in a line: SPR single-cycle, supernatant IgG captured. The procedure, abridged:
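Humanized, affinity-matured IgGs from crude supernatant (0.5 μg/ml in HBS-P+) captured on Protein A to ~100 RU. Single-cycle kinetics: CEACAM1 at three concentrations, 70–280 nM two-fold, 80 μl/min, 80 s association each, 150 s dissociation. Reference-channel and blank-run subtraction applied.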

B1: chimeric antibody VH0/Vκ0 (antibody, IgG4, V domains shown)
VH: EVQLVESGGDLVKPGGSLKLACAASGFIFSSHGMSWVRQTPDKRLEWVATISSGGTYTYYPDSVKGRFTISRDNDKNTLYLQMNSLKSEDTAMYYCARHDFDYDAAWFAYWGQGTLVTVSS
VL: QIVLTQSPALMSASPGVKVTMTCSANSSVSYMYWYRQKPRSSPKPWIYLTSNLASGVPARFSGSGSGTSYSLTISSMEAEDAATYYCQQWSSNPPTFGSGTKLEIK
notes: IgG4 (S241P), kappa; also called VH0/Vκ0 (control); Chimeric VH0/Vκ0
Turning to B1, the “relative KD to VH0/Vκ0” value with His-tagged CEACAM1 [1] came to 1. Also, the binding result in experiment [2] is given as “no binding”. Moreover, in the experiment with His-tagged CEACAM1 [3], the Kd was 105 nM, the koff is 0.0258 s⁻¹, the kon is 246000 M⁻¹ s⁻¹ and the “relative KD” value came out at 1.

B2: VH1/Vκ8 S29A (antibody, IgG4, V domains shown)
VH: EVQLLESGGGLVQPGGSLRLSCAASGFIFSSHGMSWVRQAPGKGLEWVATISSGGTYTYYPDSVKGRFTISRDNSKNTLYLQMNSLKAEDTAMYYCARHDFDYDAAWFAYWGQGTLVTVSS
VL: EIVLTQSPATLSLSPGERATLSCRANSAVSYMYWYQQKPGQAPRPWIYLTSNRATGVPARFSGSGSGTDYTLTISSLEPEDFAVYYCQQWSSNPPTFGQGTKLEIK
notes: IgG4 (S241P), kappa; also called Parent; Parent (VH1/Vκ8 S29A)
For the molecule B2, in the experiment with His-tagged CEACAM1 [4], the dissociation constant Kd was 560 nM, the koff came to 0.053 s⁻¹, the on-rate constant (kon) turned out to be 94000 M⁻¹ s⁻¹ and the “relative KD to parent” value amounted to 1.
